How the values were obtained:
[1] = test system: A375 cells overexpressing human HER3; experiment: ADC cytotoxicity, CellTiter-Glo; format: cell-based; settings: Example 21, FIG. 13
[2] = test system: HER3-overexpressing A375 cells; experiment: Cell imaging of internalization; format: cell-based; settings: 100 nM, FIG. 11
Method: A cell imaging microplate detection system was used to monitor the internalization of hHE4-G1W, hHE4-G1W-DXd, patritumab, and patritumab-DXd after binding to HER3 on the surface of A375 tumor cells. hHE4-G1W, hHE4-G1W-DXd, patritumab, and patritumab-DXd (each 100 nM) were incubated with HER3-overexpressing A375 cells at 4°C for 30 minutes, respectively. Unbound antibodies were removed by washing, and PE-labeled goat anti-human Fc secondary antibody (Jackson) was added. The mixture was incubated at 4°C for 30 minutes, and then the unbound secondary antibody was removed by washing. When the antibodies were bound to the surface of A375 cells and had not yet undergone internalization, these samples were designated as the 0h samples. Fluorescence images were acquired using a Biotek Cytation 1 imaging reader. Cells were then incubated at 37°C for 3 hours and imaged again.

[3] = test system: HER3-expressing HCC1569 cells; experiment: ADC cytotoxicity; format: cell-based; settings: FIG. 13
Method: (§1) A375 and OVCAR3 cells were seeded in 96-well plates at 5,000 cells per well, and gradient-diluted ADCs (cHE4-G1W-DXd, cHE5-G1W-DXd, cHE7-G1W-DXd, patritumab-DXd, and IgG-DXd) were added. After incubation at 37°C for 5 days, cell viability was measured using CellTiter-Glo (Promega) to evaluate cytotoxicity of the ADCs.
(§2) The cytotoxicity of antibody-drug conjugates based on hHE4-G1W against HER3-expressing HCC1569, A375, and JIMT-1 tumor cells was tested. Antibody-drug conjugates were prepared as described in Example 11. Hydrophobic interaction chromatography indicated the antibody-to-Dxd ratios for cHE4-G1W-DXd, hHE4-G1W-DXd, patritumab-DXd, and negative control IgG-DXd were 1:7, 1:8, 1:7.8, and 1:8, respectively.

[4] = test system: human HER3-overexpressing JIMT-1 cells; experiment: ADC cytotoxicity; format: cell-based; settings: FIG. 13
Method: as §1, §2

SW620 tumor = experiment: Tumor inhibition in SW620 tumor-bearing mice; format: in vivo, Female SCID mice; settings: 3 mg/kg, single dose, FIG. 14
Method: The anti-tumor efficacy of hHE4-G1W-DXd and cHE5-G1W-DXd was evaluated in SW620 tumor-bearing mice. Female SCID mice were subcutaneously injected with SW620 cells in the dorsal region to establish the xenograft model. After tumor establishment, mice were randomly divided into nine groups and treated with a single dose. Three groups served as negative controls: one group received PBS, and two groups received IgG-DXd at low dose (3 mg/kg) and high dose (6 mg/kg), respectively. Experimental groups were administered with hHE4-G1W-DXd, cHE5-G1W-DXd, or patritumab-DXd at 3 mg/kg or 6 mg/kg. The average Dxd-to-antibody ratio was 8. Mouse body weights and tumor volumes were measured.

patritumab-DXd [reference compound] was tested, and the “cytotoxicity against A375 cells” value [1] was “significant cytotoxicity”, the “binding to HER3 on the surface of A375 cells” value ([2]; 0 hour) was “bound to HER3 expressed on the cell surface” and the “internalization into A375 cells” value ([2]; after 3 hours at 37°C) was “internalized into the A375 cells”. The “cytotoxicity against HCC1569 cells” value [3] was “significant cytotoxicity”, the “cytotoxicity against JIMT-1 cells” value [4] was “significant cytotoxicity” and the tumor growth (SW620 tumor) was “significant tumor growth at day 14 postadministration”.
